Assay [1] deals with T1, full-length catalytic domain of human N-myristoyltransferase 1 (hNMT1s) (human) (UniProt P30419).
T1 sequence: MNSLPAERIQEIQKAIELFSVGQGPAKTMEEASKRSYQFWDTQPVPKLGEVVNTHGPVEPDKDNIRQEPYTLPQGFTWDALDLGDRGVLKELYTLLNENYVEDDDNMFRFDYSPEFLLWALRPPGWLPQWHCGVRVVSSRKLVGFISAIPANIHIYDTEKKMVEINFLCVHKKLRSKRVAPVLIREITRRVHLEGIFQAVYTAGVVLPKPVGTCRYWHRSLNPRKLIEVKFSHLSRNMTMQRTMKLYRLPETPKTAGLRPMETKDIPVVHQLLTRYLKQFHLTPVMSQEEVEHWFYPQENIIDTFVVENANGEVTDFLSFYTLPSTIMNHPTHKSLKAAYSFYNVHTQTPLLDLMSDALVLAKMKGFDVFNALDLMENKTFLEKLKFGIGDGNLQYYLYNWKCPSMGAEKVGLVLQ

The target of assay [2] is T2, truncation mutant of hNMT1s devoid of 28 N-terminal amino acids (Δ28-hNMT1s) (human) (UniProt P30419).
T2 sequence: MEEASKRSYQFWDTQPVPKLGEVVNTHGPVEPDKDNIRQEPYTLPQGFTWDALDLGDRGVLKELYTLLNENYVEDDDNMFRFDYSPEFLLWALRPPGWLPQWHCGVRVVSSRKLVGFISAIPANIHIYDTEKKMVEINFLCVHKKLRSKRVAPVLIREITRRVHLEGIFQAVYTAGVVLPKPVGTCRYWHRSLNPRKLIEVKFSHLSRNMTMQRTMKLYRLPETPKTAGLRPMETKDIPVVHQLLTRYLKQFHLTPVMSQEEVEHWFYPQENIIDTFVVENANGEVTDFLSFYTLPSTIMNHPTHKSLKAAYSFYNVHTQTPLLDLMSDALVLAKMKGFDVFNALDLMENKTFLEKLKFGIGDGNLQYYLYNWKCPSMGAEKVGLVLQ

On to GSNKSKPK [peptide substrate corresponding to the N-terminal sequence of pp60src (amino acids 2-9)], for which the K m (μM) for the peptide in the myristoylation reaction (fluorescence assay of CoA release with CPM; peptide 1-50 μM, MYA 30 μM, 5 nM enzyme, 25°C) in assay [1] came out at 25.7 µM; in assay [2], 14.4 µM.

Values taken from paper PMC4441422.
